± gives the standard deviation.

Our source for the protein stability index values is the supplement of paper PMC10567573.

This series in a line: protein stability index of a GFP-peptide fusion (GPS, HEK-293T) (PSI 1-6); higher = more stable.
The mark [1] stands for this setting: treatment: DMSO, c terminus: a fixed tail appended.
Where [2] appears, read: treatment: MLN4924 1 uM, 8 h, c terminus: a fixed tail appended.
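Also: 24-mer peptide tiles fused after GFP, lentivirally expressed, FACS-sorted into six equal bins by GFP/DsRed ratio, decoded by Illumina sequencing, PSI is the read-weighted mean bin number.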

Consider GHLEIVKYLVEHKADLEVSNRHGH [FEM1C], for which the protein stability index came out at 2.7 ± 0.45 under setting [1] and 2.94 ± 0.26 under setting [2].
As for YQDMIYAVGGRDDTTELSSAERYN [KLHL20], the protein stability index worked out at 2.91 ± 0.66 under setting [1] and 3.52 ± 0.51 under setting [2].
As for YSQGRLSEAEEALYLIAKRNRKLK [SLC22A15], the protein stability index by setting is: under setting [1], 2.81 ± 0.2; under setting [2], 3 ± 0.063.
AAWIGGFLHSLVQFLFIYQLPFCG [OR4A15]: the protein stability index by setting is: under setting [1], 3.92 ± 0.8; under setting [2], 3.21 ± 0.6.
The corresponding values for SRRSMAHILKARKVLTEPEVRYYL [PLK2] are 2.48 ± 0.35 and 2.43 ± 0.15.
Regarding LLTFQQITTVSKAKGASLFTCDLQ [VPS39], the protein stability index amounted to 2.14 ± 0.2 under setting [1] and 2.07 ± 0.27 under setting [2].
Take PFGENAEFPADISSITEAVPSESE [NFE2L1]: the protein stability index stood at 5.5 ± 0.28 under setting [1] and 5.25 ± 0.27 under setting [2].
The corresponding values for CWKMLSPGFDSSVYSDLCEAAEAV [ADAMTSL2] are 2.69 ± 0.34 and 3.16 ± 0.71.
Take EVKIRDWHLKQSPASPERDYSPYY [KRT13]: the protein stability index came to 3.34 ± 0.38 under setting [1] and 3.35 ± 0.47 under setting [2].
As to PEQGVPKSGEGFIDFIGQVHKTKE [PTPRD], the protein stability index is, setting by setting: under setting [1], 4.6 ± 0.44; under setting [2], 5.17 ± 0.5.
The corresponding values for RHKSGVHQPPQAGAGDVVLLQREL [LYSMD4] are 4.08 ± 0.22 and 4.16 ± 0.092.
In the case of PPIPILELADHIERLKANDNLKFS [PTPRD], the protein stability index under setting [1] was 3.56 ± 0.19 and the protein stability index under setting [2] came to 3.32 ± 0.2.
APPLPDSPQPLASSPGPWGLEALA [FCHO1]: the protein stability index by setting is: under setting [1], 4.43 ± 0.16; under setting [2], 3.99 ± 0.18.
On to ERPQDRDTPVQNKRRRSVTPPEEQ [CDC25B], for which the protein stability index is 5.34 ± 0.18 under setting [1] and 5.32 ± 0.23 under setting [2].
VIASGSSVGHNNLIPLANTGIVNH [CARM1]: the protein stability index is, setting by setting: under setting [1], 3.11 ± 0.099; under setting [2], 3.19 ± 0.23.
The corresponding values for LIPQPLDSEEDEKMEEDIKEEEEK [PCMTD1] are 5.66 ± 0.23 and 5.67 ± 0.22.
Turning to KNMDQVAPVANSYRGTLKRQPAFD [ETS2], the protein stability index was determined as 3.99 ± 0.41 under setting [1] and 4.15 ± 0.21 under setting [2].
Sequence PEEKIWEELSVLEVFEGREDSILG [MAGEA3] registered a protein stability index under setting [1] of 4.6 ± 0.44 and a protein stability index under setting [2] of 4.67 ± 0.11.
The corresponding values for HAPTIHFNYRYFEVEEADGNKQWW [CPOX] are 2.66 ± 0.38 and 2.7 ± 0.29.
Consider EDAVASADFSSMLSEEEKEELKAE [TPD52L1], for which the protein stability index was determined as 5.59 ± 0.3 under setting [1] and 5.54 ± 0.63 under setting [2].
On to NHEEDAGVRCNTPAMGLQKKLRLN [LOXL2], for which the protein stability index by setting is: under setting [1], 4.64 ± 0.12; under setting [2], 4.5 ± 0.36.
The corresponding values for QCRDLVDEAKKFHLRPELRSQMQG [KLHL12] are 3.38 ± 0.18 and 3.53 ± 0.13.
For the sequence GSAAKLVCYFTNWAQYRQGEARFL [CHIT1], the protein stability index was determined as 2.1 ± 0.36 under setting [1] and 2.23 ± 0.18 under setting [2].
Take LQIELGKCKAEHDQLLLNYAKKES [LMNB1]: the protein stability index is 3.29 ± 0.24 under setting [1] and 3.33 ± 0.33 under setting [2].
PAEGEGRLGRCMRRLRDMVERPHS [KCNG1] registered a protein stability index under setting [1] of 4.17 ± 0.14 and a protein stability index under setting [2] of 4.11 ± 0.35.
As for VQKRARSGPQPRLPPCLLPLSPPT [TRIB3], the protein stability index runs as follows: under setting [1], 3.35 ± 0.2; under setting [2], 3.46 ± 0.23.
Take LPECLEYEEEFDYETESETESEIE [GNAS]: the protein stability index reads like this: under setting [1], 5.3 ± 0.15; under setting [2], 5.26 ± 0.23.
With ALVRWWNGIGAVLDFTHPKARDWF [MYORG], the protein stability index under setting [1] worked out at 2.59 ± 0.52 and the protein stability index under setting [2] is 2.3 ± 0.51.
PPAQGRVSRRLSPRKVSTCTDHEL [TRIM9] registered a protein stability index under setting [1] of 5.031 ± 0.046 and a protein stability index under setting [2] of 4.87 ± 0.35.
Consider EIAQYLLEKGADVNRKSVKGNTAL [FEM1C], for which the protein stability index runs as follows: under setting [1], 2.58 ± 0.35; under setting [2], 2.64 ± 0.3.
As to SEMEEEKRQAVNKAVANMQGEMDR [ZMYND11], the protein stability index runs as follows: under setting [1], 5.41 ± 0.25; under setting [2], 5.42 ± 0.29.
Take HSKGHKSSRQEKRPLCAQGDWHSP [ELOA2]: the protein stability index was found to be 3.93 ± 0.28 under setting [1] and 4.23 ± 0.37 under setting [2].
For LKGARLTVEQGCQILDSLSYMRNE [FBXO39], the protein stability index by setting is: under setting [1], 2.68 ± 0.35; under setting [2], 2.85 ± 0.38.
In the same order, the values of FLCGRALTSDLYAPMVAGALARLG [SLC25A39] are 2.85 ± 0.26 and 3.02 ± 0.64.
PAIVEAGGMQALGLHLTDPSQRLV [CTNNB1] gave a protein stability index under setting [1] of 3.79 ± 0.23 and a protein stability index under setting [2] of 3.83 ± 0.15.
GRGGRDRFTAESYTVLGDTLIDGG [FSD1]: the protein stability index runs as follows: under setting [1], 4.06 ± 0.26; under setting [2], 4.08 ± 0.52.
The corresponding values for LLEKVPCTLEQDHFKKQTIYRFLK [FEM1C] are 2.38 ± 0.83 and 2.31 ± 0.23.
In the same order, the values of FNSTYNARVKAFNKTGVSPYSKTL [TRIM9] are 2.55 ± 0.41 and 2.85 ± 0.38.
As for DNIVNCNEFLCTLQKKLDNLQCLY [ZNF277], the protein stability index is, setting by setting: under setting [1], 2.36 ± 0.39; under setting [2], 2.07 ± 0.43.
HTLAVMNDRLYAIGGNHLKGFSHL [KLHL14] yielded a protein stability index under setting [1] of 2.22 ± 0.12 and a protein stability index under setting [2] of 2.18 ± 0.11.
In the same order, the values of LIQNGGEIDCVDKDGNTPLHVAAR [ANKRD44] are 4.32 ± 0.087 and 4.53 ± 0.16.
On to SPFSVHPKTGRISVPIDLQKVDQF [PRIM1], for which the protein stability index is 3.18 ± 0.59 under setting [1] and 3.42 ± 0.37 under setting [2].
Turning to YLGSLQYRVWKKMLASVESVPFSF [TRIM35], the protein stability index reads like this: under setting [1], 2.93 ± 0.63; under setting [2], 2.33 ± 0.48.
On to DFMELGRSIPDTQLEQVIESQKAN [ACSBG2], for which the protein stability index reads like this: under setting [1], 5.16 ± 0.26; under setting [2], 4.99 ± 0.26.
In the same order, the values of VRFLEQQNAALRGELSQARGQEPA [PRPH] are 4.57 ± 0.27 and 4.41 ± 0.18.
As for DGGALLGVLQYRGAELHLQPLEGG [ADAMTS4], the protein stability index reads like this: under setting [1], 2.06 ± 0.94; under setting [2], 2.52 ± 0.73.
On to VFKCSVSRETECSRVGKQSFIITL [CARM1], for which the protein stability index is, setting by setting: under setting [1], 2.65 ± 1.1; under setting [2], 2.61 ± 0.67.
On to RYHVIRKLGWGHFSTVWLCWDMQG [SRPK2], for which the protein stability index under setting [1] was determined as 2.83 ± 0.74 and the protein stability index under setting [2] was 2.69 ± 0.27.
On to HSIIISLVEAGAHTDMTNKQNKTP [FEM1B], for which the protein stability index reads like this: under setting [1], 2.46 ± 0.49; under setting [2], 2.63 ± 0.32.
As to GAASLPSELIVHIFSFLPAPDRLR [FBXO33], the protein stability index by setting is: under setting [1], 2.6 ± 0.74; under setting [2], 2.74 ± 0.39.
Take GATAASETLSGHGPLAQPLTLQVL [ADAMTS4]: the protein stability index worked out at 3.28 ± 0.29 under setting [1] and 3.19 ± 0.36 under setting [2].
The corresponding values for RMLIHKTEDVNTLDSEKRTPLHVA [ANKRD44] are 4.06 ± 0.22 and 4.15 ± 0.39.
For GEVVTESQKEQRSELDKSSAHSY [PRPH], the protein stability index runs as follows: (treatment: DMSO, c terminus: native) 5.67 ± 0.24; (treatment: MLN4924 1 uM, 8 h, c terminus: native) 5.77 ± 0.1.
In the case of HSLEYIDLMETTQYMNEGELRVLA [HDAC6], the protein stability index came to 2.79 ± 0.4 under setting [1] and 3.04 ± 0.34 under setting [2].
As to RSDVEKGGKIIMPPSALDQLSRLN [UFD1], the protein stability index runs as follows: under setting [1], 3.55 ± 0.41; under setting [2], 3.97 ± 0.28.
CEITKRRRKACQACRFTKCLRVGM [ESRRA]: the protein stability index came out at 2.26 ± 0.17 under setting [1] and 2.32 ± 0.22 under setting [2].
Take RTRDYKKTSLAPYVKVFEHFLENL [PRIM1]: the protein stability index reads like this: under setting [1], 2.11 ± 0.4; under setting [2], 2.48 ± 0.54.
On to IAHDGQRIYVLGGGTSWTAYSLNK [KLHDC10], for which the protein stability index reads like this: under setting [1], 2.13 ± 0.38; under setting [2], 2.1 ± 0.066.
In the same order, the values of RITITESNMKSRYTTEFHELEKIG [WEE1] are 3.03 ± 0.37 and 3.59 ± 0.55.
For RNRPKSTVNTHYFSIDEELVYENF [CDC14A], the protein stability index under setting [1] was found to be 2.99 ± 0.37 and the protein stability index under setting [2] came to 3.39 ± 0.38.
Consider KAKANGITMYAVGVGKAIEEELQE [MATN2], for which the protein stability index by setting is: under setting [1], 3.83 ± 0.33; under setting [2], 4.12 ± 0.32.
Sequence PAPLCGGPSAEAYLLHPAAFHGAP [TBX6] registered a protein stability index under setting [1] of 2.82 ± 0.34 and a protein stability index under setting [2] of 2.95 ± 0.27.
For the sequence APSPSPVTPAQNNLLQPNFEAAFG [SNAP91], the protein stability index runs as follows: under setting [1], 4.43 ± 0.089; under setting [2], 4.54 ± 0.38.
Turning to SAFADIIHSLKESGQLWLDAYLHQ [FADS1], the protein stability index is, setting by setting: under setting [1], 2.16 ± 0.4; under setting [2], 2.25 ± 0.49.
As for ARGGAVSARYVLPDEAARARLLQE [DUSP5], the protein stability index under setting [1] came out at 4.63 ± 0.16 and the protein stability index under setting [2] stood at 4.54 ± 0.34.
Turning to LLADVKGARAALNEIESRHRELLR [STX11], the protein stability index is, setting by setting: under setting [1], 3.03 ± 0.23; under setting [2], 3.3 ± 0.41.
For REESLPNLLQYVRMPLLTPRYITD [KLHL12], the protein stability index was determined as 2.8 ± 0.38 under setting [1] and 2.63 ± 0.34 under setting [2].
The corresponding values for DRVQVERDGLAEDLAALKQRLEEE [PRPH] are 5.49 ± 0.16 and 5.17 ± 0.25.
The corresponding values for DEKQRDPRIEASKVLLCHGELRSK [NET1] are 4.42 ± 0.21 and 4.63 ± 0.22.
In turn, GGKSGGIVISPFRLEELTNRLASL [CCDC6] yielded a protein stability index under setting [1] of 2.58 ± 0.33 and a protein stability index under setting [2] of 2.69 ± 0.22.
Turning to ASKCKGAAVKLADFGLAIEVQGDQ [CAMK2B], the protein stability index was determined as 3.5 ± 0.28 under setting [1] and 3.6 ± 0.37 under setting [2].
Take LTSMRRLSSIKRDTNSIAKAIKAR [STX11]: the protein stability index under setting [1] is 3.4 ± 0.26 and the protein stability index under setting [2] was found to be 3.64 ± 0.34.
